The source of these data is patent KR20190105077A.

Holding throughout (assay): cell-based or functional assay
The target in test [1] is 인간 PD-1 (human PD-1) (human) (UniProt Q15116).
Test [2] deals with 배양된 세포에 의해 내인적으로 생성되는 TGF-β.
In test [3] the target is 인간 TGF-β1 (human TGF-β1) (human) (UniProt P01137).
UniProt P01137, sequence (P01137 279-390 limits assumed): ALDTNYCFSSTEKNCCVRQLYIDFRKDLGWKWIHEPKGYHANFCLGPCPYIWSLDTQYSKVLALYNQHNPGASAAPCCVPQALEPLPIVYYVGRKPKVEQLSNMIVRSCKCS

UniProt Q15116, sequence (Q15116 25-288): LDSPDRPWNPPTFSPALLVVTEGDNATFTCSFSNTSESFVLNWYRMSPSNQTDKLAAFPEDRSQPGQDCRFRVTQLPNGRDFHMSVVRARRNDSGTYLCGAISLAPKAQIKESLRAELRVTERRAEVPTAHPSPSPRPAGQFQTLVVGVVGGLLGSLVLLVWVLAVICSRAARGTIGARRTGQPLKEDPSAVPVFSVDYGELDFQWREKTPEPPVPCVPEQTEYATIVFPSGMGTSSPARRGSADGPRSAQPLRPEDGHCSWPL

For the substance “마우스 항-hPD-1 IgG (BioLegend Cat#329912) (antibody)”, in test [1], the NFAT-루시퍼라제 상대 발광 단위, 인간 PD-1 발현 Jurkat T 세포와 인간 PD-L1 발현 CHO-K1 세포의 24시간 공동-배양 stood at 866000 RLU; the 루시퍼라제 활성의 배율 변화, 항-hPD-1 항체 대 이소형 대조군 (234963 RLU) was 3.69 배; the 루시퍼라제 활성의 배율 변화, 항-hPD-1 항체 대 항체 부재 (206043 RLU) was 4.2 배.
Take “항-HEL hIgG4 (인간 IgG4, 카파 항-계란 라이소자임 항체, Crown Bioscience) (antibody)”: in test [2], the iTreg(FOXP3+CD25+) 백분율, 자극된 인간 CD4+ T 세포, 항체 50 ㎍/㎖, 외인성 TGF-β 없음 (항체 없이 15%) is 20%. In test [3], the NFAT-루시퍼라제 상대 발광 단위, 18 ng/㎖ TGF-β1로 12일 사전-처리된 Jurkat T 세포, 항-PD-1 Ab 존재 하 CHO-K1 공동-배양 (Ab 부재: 638866) amounted to 639000 RLU and the iTreg(CD25+FOXP3+) 백분율, 자극된 인간 CD4+ T 세포 + 2 ng/㎖ 인간 TGF-β1, 항체 200 ㎍/㎖ 및 6.25 ㎍/㎖ (항체 없이 55%) was found to be 60%.
